According to paper PMC10502012 (2023):
No end group written: not given here. PEG = not defined here; Cy5 = Cy5 dye

target: chicken PHT1 (purified, wild type) (chicken); assay: MST
Sequence (chain, as listed by the source): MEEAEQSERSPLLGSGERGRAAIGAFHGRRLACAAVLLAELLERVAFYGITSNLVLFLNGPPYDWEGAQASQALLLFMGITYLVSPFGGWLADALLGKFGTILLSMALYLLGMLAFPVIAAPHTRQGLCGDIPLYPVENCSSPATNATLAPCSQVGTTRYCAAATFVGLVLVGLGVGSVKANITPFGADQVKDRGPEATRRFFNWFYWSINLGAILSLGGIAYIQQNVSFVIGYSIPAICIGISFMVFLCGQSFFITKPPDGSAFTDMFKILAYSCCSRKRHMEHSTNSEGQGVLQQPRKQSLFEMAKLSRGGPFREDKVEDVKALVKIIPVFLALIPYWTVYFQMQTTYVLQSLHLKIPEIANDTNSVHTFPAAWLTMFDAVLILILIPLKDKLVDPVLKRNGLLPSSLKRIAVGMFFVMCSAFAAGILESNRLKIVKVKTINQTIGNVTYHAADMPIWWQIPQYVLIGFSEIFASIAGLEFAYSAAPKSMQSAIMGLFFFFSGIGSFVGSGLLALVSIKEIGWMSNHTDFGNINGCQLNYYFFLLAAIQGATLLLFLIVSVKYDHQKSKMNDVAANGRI

Kd [nM]	Binder
361	MLSEGYLYRIAYL-{PEG-Cy5} (reading uncertain) [fluorescently labeled TASL_(1-13) peptide]

target: chicken PHT1 (purified, wild type) (chicken); assay: not given

Kd [nM]	Binder
1760	MLSEGYLYRIAYLCE [TASL peptide with a length of 15 residues]
4050	MLSEGYLYRIAYLCEDSELCT [TASL peptide with a length of 21 residues]
1350	MLSEGYLYRIAYLCEDS [TASL peptide with a length of 17 residues]

target: chicken PHT1 (purified, wild type) (chicken); assay: not given; remark: another data set of the same source

Kd [nM]	Binder
400	MLSEGYLYRIAYLA [TASL 1-14 C14A]
10500	EGYLYRIAYL [TASL 4-13]
3360	MLSEGYLYAIAYL [TASL 1-13 R9A]
9110	LSEGYLYRIAYL [TASL 2-13]
310	MLSEGYAYRIAYL [TASL 1-13 L7A]
1740	MLSEGYLYRIAY [TASL 1-12]
410	MLSEGYLYRIAYLGSGSGS [TASL 1-13-GSGSGS]
2120	MLSEGYLARIAYL [TASL 1-13 Y8A]
710	MLSEGYLYRIAYLGS [TASL 1-13-GS]
15400	ALSEGYLYRIAYL [TASL 1-13 M1A]
7630	SEGYLYRIAYL [TASL 3-13]
580	MLSEGYLYRIAYLGSGS [TASL 1-13-GSGS]
1530	MLSEGALYRIAYL [TASL 1-13 Y6A]
7280	MASEGYLYRIAYL [TASL 1-13 L2A]
690	MLAEGYLYRIAYL [TASL 1-13 S3A]
